According to IntAct's records for PubMed 28515320:

B1: Nectin-2 (Homo sapiens), Q92692 (parent)
chain: MARAAALLPSRSPPTPLLWPLLLLLLLETGAQDVRVQVLPEVRGQLGGTVELPCHLLPPVPGLYISLVTWQRPDAPANHQNVAAFHPKMGPSFPSPKPGSERLSFVSAKQSTGQDTEAELQDATLALHGLTVEDEGNYTCEFATFPKGSVRGMTWLRVIAKPKNQAEAQKVTFSQDPTTVALCISKEGRPPARISWLSSLDWEAKETQVSGTLAGTVTVTSRFTLVPSGRADGVTVTCKVEHESFEEPALIPVTLSVRYPPEVSISGYDDNWYLGRTDATLSCDVRSNPEPTGYDWSTTSGTFPTSAVAQGSQLVIHAVDSLFNTTFVCTVTNAVGMGRAEQVIFVRETPNTAGAGATGGIIGGIIAAIIATAVAATGILICRQQRKEQTLQGAEEDEDLEGPPSYKPPTPKAKLEAQEMPSQLFTLGASEHSPLKTPYFDAGASCTEQEMPRYHELPTLEERSGPLHPGATSLGSPIPVPPGPPAVEDVSLDLEDEEGEEEEEYLDKINPIYDALSYSSPSDSYQGKGFVMSRAMYV
partner: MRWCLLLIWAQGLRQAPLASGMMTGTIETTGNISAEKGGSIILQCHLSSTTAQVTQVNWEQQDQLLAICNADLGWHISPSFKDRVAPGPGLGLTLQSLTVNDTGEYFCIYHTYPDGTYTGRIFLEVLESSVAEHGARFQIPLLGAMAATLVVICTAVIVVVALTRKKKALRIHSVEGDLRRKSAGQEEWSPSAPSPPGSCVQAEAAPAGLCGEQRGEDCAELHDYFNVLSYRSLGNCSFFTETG

Variants of: B1
Details: with tigit_human TIGIT

effect of a mutation on the interaction | Variant
with no effect | E101A
disrupting interaction strength | F145A
with no effect | E141A
decreasing interaction strength | G90A

More lines, now with the values behind:

Variant | effect of a mutation on the interaction
L67A | decreasing interaction strength
L67Q | decreasing interaction strength
A83V | decreasing interaction strength
A83R | decreasing interaction strength
H86A | decreasing interaction strength
M89A | decreasing interaction strength
